The values that follow are results of earlier work, collected in PMC8526499.

The target in series [1] is CD47 (Homo sapiens) (UniProt Q08722).
The next series has as its target CD47 (Mus musculus) (UniProt Q61735).
Series [2] deals with CD47 (Homo sapiens) (UniProt Q08722). This is another data set of the same source.
The target is the same in series [3]. This is another data set of the same source.

Where two headings read alike, the source gives them in different places.

Sequence of UniProt Q08722 (Q08722 19-323): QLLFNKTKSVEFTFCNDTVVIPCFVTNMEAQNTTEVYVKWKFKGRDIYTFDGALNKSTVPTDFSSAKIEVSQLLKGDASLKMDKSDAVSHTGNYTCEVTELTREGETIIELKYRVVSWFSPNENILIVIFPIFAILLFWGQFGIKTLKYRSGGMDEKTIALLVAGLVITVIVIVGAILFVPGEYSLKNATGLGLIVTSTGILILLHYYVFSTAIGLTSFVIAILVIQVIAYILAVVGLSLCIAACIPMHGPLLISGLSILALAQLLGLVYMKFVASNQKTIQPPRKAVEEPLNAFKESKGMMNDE
Sequence of UniProt Q61735 (Q61735 19-303): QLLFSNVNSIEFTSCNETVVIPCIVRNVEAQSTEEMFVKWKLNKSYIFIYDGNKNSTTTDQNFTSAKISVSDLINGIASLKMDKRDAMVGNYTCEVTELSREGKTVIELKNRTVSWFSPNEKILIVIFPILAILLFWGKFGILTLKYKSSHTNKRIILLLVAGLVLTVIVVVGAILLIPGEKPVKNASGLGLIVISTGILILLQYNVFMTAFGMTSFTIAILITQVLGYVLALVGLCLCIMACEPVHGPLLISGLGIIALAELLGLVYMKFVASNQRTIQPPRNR

As for SIRPα (NOD) (from UniProt P97797), in the series with CD47 (Homo sapiens) [1], the equilibrium dissociation constant (Kd) (as a rule, the free concentration of one partner at which half of the binding sites on the other are occupied at equilibrium, for simple one-to-one binding) was 80 nM.

Take SIRPα (C57BL/6) (from UniProt P97797): the dissociation constant Kd in the series with CD47 (Mus musculus) and in the series with CD47 (Homo sapiens) [2] was 5000 nM each time.

Regarding SIRPα (from UniProt P78324), in the series with CD47 (Homo sapiens) [3], the Kd is 450 nM.
